Here are results for 2 substances from paper PMC10018351.

The target in assay [1] is hnRNPU (UniProt Q00839). Briefly: anti-Flag co-IP, hnRNPU immunoblot. The settings on record: reference: wild type; sites S83,S85.
The target of assay [2] is hnRNPU (UniProt Q00839). The assay can be described thus: Flag-hnRNPU co-IP, HA-FOXN3 immunoblot. The following applies: reference: WT FOXN3 with HA-p38; sites S83,S85.

For FOXN3 (from UniProt O00409) S83,85A, in the assay with hnRNPU [1], the “binding against the reference” value is on record as “stronger”.

In the case of “FOXN3 (from UniProt O00409) S83,85A with HA-p38”, in the assay with hnRNPU [2], the “binding against the reference” value is listed as “stronger”.
